Columns and labels:
[1] = target: T1, Human MMP-9 catalytic domain (Homo sapiens, UniProt P14780); assay: Inhibition progress curves and kinetic analysis (kobs, kon, koff); type: biochemical; settings: 25° C.; for kobs: substrate 9 μM
T1 construct: Human MMP-9 catalytic domain (BIOMOL, SE-244); purchased BIOMOL SE-244
Description: The kinetics of the interaction between M0237-D02 and the human MMP-9 were determined. The rates were determined using the following equation: […]
The second order rate constant for the association of the enzyme E and the inhibitor I (kon) and the first order rate constant for the dissociation of the complex EI (koff) can be calculated from inhibition progress curves obtained at different inhibitor concentrations.
Materials: • Substrate: Mca-KPLGL-Dap(Dnp)-AR-NH2 (M-2350) from BACHEM (521575). A 10 mM stock solution was prepared in DMSO. • Human MMP-9 catalytic domain (BIOMOL, SE-244). • M0237-D02 hIgG1: 2517-068. • All measurements were performed at 25° C. in TCNB: 50 mM Tris/HCl, 10 mM CaCl2, 150 mM NaC10.05% Brij 35, pH 7.5. • 96-well black plates from Perkin Elmer (6005270) • Spectramax M2e to measure fluorescence emission of the substrate upon hydrolysis (λexc=328 nm and λem=393 nm)
The enzyme (at a final concentration ranging from 1.5 to 12.3 nM), the substrate (9 μM final) and the M0237-D02 antibody were mixed, and the fluorescence was immediately recorded in order to follow the hydrolysis of the substrate. The observed inhibition rate (kobs) was obtained by analyzing the progress curves with a single exponential. The value for kon and koff were calculated from the plot of the kobs vs. the antibody concentration using the following equation: […]

[2] = system: carrageenan-stimulated mouse air pouch; assay: Carrageenan-stimulated mouse air pouch, inflammatory cell infiltration; type: in vivo; settings: FIG. 2
Source text: The purpose of the following experiments were to determine the effect of 539A-M0237-D02 on inflammation and specifically on inflammatory cell infiltration into the carrageenan-stimulated mouse air pouch and on the arthritic index in collagen-induced arthritis (CIA) mice.
For the carrageenan-stimulated mouse air pouch model, subcutaneous injection of air into the hind flank or back of mice produces an air pouch in a week, the interior surface of which contains both fibroblast-like and macrophage-like cells. Inflammatory stimulation of the pouch results in leukocyte recruitment to the pouch and release of mediators (cytokines) into the exudate. Preventing inflammatory cell infiltration into the air pouch may translate into preventing inflammation of the synovium in rheumatoid arthritis.
The effect of 539A-M0237-D02 on inflammatory cell infiltration was compared to inflammatory cell infiltration indomethacin and a control (PBS). In addition, inflammatory cell recruitment was compared to an unstimulated mouse.

human pro-MMP-9 = target: T2, human pro-MMP-9 (Homo sapiens, UniProt P14780); assay: Biacore 3000 binding to antibody-coated CM5 chip; settings: Direct capture, 25° C.
T2 construct: the human pro-MMP-9 (R&D, 911-MP); purchased R&D Systems 911-MP
Description: (§1) Experiments were performed at 25° C. with the help of a Biacore 3000 instrument. The MMP-9 binding protein (M0166F10) and the M0237-D02 antibody were coated to a CM5 chip either via standard amine coupling or using an anti-Fc antibody surface. Then either the active, human MMP-9 catalytic domain (BIOMOL, SE-244), the human pro-MMP-9 (R&D, 911-MP), the human TIMP-1 (R&D, 970-TM) or a h-MMP-9/h-TIMP-1 complex were flowed over the antibody surfaces, and binding was recorded.

human TIMP-1 = target: T3, human TIMP-1 (Homo sapiens, UniProt P01033); assay: Biacore 3000 binding to antibody-coated CM5 chip; settings: Direct capture; 25° C.
T3 construct: purchased R&D Systems 970-TM
Description: as §1

[3] = target: T1, Human MMP-9 catalytic domain; assay: Biacore 3000 binding to antibody-coated CM5 chip; settings: 25° C.
Description: as §1

Mouse MMP-9 = target: T4, Mouse MMP-9 (Mus musculus, UniProt P41245); assay: Ki measurement and inhibition model, fluorogenic substrate Mca-KPLGL-Dap(Dnp)-AR-NH2; type: biochemical; settings: fluorogenic peptide substrates
T4 construct: purchased R&D Systems 909-MM (909-MM-010)
Description: (§2) This example characterized the interaction of the M0237-D02 hIgG1 with the human and mouse MMP-9. The Ki was measured and the inhibition mechanism was determined
(§3) Materials: • Substrate: Mca-KPLGL-Dap(Dnp)-AR-NH2 (M-2350) from BACHEM (521575). A 10 mM stock solution was prepared in DMSO. • Enzymes: • Human MMP-9 catalytic domain (BIOMOL, SE-244). Enzyme concentration was measured by titration with TIMP-1 (2522-104) • Mouse MMP-9 (R&D, 909-MM), APMA-activated. • M0237-D02 hIgG1: 2517-014. Dialysed against TCN. • TCNB: 50 mM Tris/HCl, 10 mM CaCl2, 150 mM NaC, […], pH 7.5. • -96-well black plates from Perkin Elmer (6005270) • Spectramax M2e to measure fluorescence emission of the substrate upon hydrolysis (temperature control set at 30° C.; λexc=328 nm and λem=393 nm)
(§4) The enzyme (final concentration=0.23 and 0.17 nM for the human and mouse MMP-9, respectively) was preincubated with various concentrations (0-50 nM) of M0237-D02 for 1 h at 30° C. The substrate was then added to a final concentration ranging from 5 to 40 μM and initial rates were recorded.
(§5) Each data point was measured in triplicate, and initial rates were averaged.
(§6) Averaged initial rates were plotted against the M0237-D02 concentration for each substrate concentration, and IC50's were calculated using the following equation: […]
(§7) The IC50 values were then plotted against the substrate concentration.

[4] = target: T1, Human MMP-9 catalytic domain; assay: as above; type: biochemical; settings: fluorogenic peptide substrates
Description: as §2, §3, §4, §5, §6, §7

[5] = from plot of kobs vs. antibody concentration

T1 sequence (P14780 107-444 limits assumed): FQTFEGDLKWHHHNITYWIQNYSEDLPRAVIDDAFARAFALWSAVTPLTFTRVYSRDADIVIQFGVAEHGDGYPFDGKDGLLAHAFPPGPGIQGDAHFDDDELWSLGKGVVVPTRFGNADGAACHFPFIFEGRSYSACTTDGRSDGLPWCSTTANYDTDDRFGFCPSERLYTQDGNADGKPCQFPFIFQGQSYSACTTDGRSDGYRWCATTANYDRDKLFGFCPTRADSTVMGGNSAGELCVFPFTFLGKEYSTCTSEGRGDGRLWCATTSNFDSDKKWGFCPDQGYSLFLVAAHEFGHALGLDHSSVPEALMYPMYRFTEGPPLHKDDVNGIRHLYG
T2 sequence (P14780 20-707 limits assumed): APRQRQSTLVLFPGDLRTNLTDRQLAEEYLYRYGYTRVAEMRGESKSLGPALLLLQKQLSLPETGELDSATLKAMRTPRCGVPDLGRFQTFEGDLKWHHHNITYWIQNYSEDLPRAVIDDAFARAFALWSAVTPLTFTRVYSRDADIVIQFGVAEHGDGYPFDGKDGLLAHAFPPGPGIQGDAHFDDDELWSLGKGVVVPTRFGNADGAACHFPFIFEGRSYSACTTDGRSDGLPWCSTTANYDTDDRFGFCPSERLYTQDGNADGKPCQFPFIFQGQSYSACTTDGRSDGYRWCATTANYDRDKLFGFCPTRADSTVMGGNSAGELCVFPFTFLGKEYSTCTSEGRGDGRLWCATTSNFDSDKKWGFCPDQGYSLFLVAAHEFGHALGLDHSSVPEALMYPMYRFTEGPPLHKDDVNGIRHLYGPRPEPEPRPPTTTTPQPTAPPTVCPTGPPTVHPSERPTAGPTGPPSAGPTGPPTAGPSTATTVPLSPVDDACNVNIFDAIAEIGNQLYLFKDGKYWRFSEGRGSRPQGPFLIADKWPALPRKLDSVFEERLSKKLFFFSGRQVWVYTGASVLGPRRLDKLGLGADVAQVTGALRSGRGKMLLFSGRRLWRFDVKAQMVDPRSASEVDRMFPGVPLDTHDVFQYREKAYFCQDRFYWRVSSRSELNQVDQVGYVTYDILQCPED
T3 sequence (P01033 24-207): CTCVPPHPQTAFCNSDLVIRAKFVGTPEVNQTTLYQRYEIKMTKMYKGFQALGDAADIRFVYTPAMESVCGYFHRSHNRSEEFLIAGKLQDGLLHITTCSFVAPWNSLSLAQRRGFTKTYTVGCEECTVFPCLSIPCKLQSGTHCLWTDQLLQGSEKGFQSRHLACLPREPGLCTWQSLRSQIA
T4 sequence (P41245 108-730): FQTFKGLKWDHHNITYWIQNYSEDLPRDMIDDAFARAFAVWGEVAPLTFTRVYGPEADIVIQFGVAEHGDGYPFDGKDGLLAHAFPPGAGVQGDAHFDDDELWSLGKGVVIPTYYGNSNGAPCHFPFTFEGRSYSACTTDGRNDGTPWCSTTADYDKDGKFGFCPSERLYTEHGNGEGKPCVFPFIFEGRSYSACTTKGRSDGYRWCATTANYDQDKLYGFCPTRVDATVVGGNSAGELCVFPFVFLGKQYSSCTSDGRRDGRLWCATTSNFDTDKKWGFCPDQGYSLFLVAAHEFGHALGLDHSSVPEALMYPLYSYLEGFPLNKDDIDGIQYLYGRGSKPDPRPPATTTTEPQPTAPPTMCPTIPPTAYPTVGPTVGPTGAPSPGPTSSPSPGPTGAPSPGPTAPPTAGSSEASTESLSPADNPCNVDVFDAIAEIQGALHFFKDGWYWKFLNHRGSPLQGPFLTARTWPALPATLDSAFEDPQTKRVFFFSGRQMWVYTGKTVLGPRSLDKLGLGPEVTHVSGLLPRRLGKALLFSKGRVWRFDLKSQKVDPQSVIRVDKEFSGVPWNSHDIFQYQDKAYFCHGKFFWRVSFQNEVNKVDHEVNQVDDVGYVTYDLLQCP

koff [1, 5]: ~4 10^−4 s^−1
kon [1, 5]: ~7 10^4 M^−1 s^−1
binding of Pro-huMMP-9 (human pro-MMP-9; listed as 539A-M0237D02): No
binding of Pro-huMMP-9 (human pro-MMP-9; listed as M237-D02): observed neither
binding of huTIMP-1 (human TIMP-1): No
binding of Cat-huMMP-9 ([3]; Direct capture (amine coupling)): No
binding of Cat-huMMP-9 ([3]; Fc capture (anti-Fc antibody surface)): could be observed
binding of Cat-huMMP-9 ([3]; Fc capture (anti-Fc antibody surface), listed as 539A-M0237D02): Yes
inhibition model (Mouse MMP-9): non competitive inhibitor
inhibition model [4]: non competitive inhibitor
B1: M0237-D02: MMP-9/-2 dual reactive antibody inhibitor (parental); sFab and hIgG1 (antibody, V domains shown)
VH: EVQLLESGGGLVQPGGSLRLSCAASGFTFSQYPMWWVRQAPGKGLEWVSYIVPSGGRTYYADSVKGRFTISRDNSKNTLYLQMNSLRAEDTAVYYCAKDRAYGDYVGWNGFDYWGQGTLVTVSS
VL: DIQMTQSPATLSLSPGERATLSCRASQSISSFLAWYQQKPGQAPRLLIYDASYRATGIPARFSGSGSGTDFTLTISSLEPEDYAVYYCQQRGNWPITFGQGTRLEIK
kobs ([1]; M0237-D02 concentration 14.4 nM): 0.0013 s⁻¹
kobs ([1]; M0237-D02 concentration 19.2 nM): 0.0019 s⁻¹
kobs ([1]; M0237-D02 concentration 28.8 nM): 0.0024 s⁻¹
kobs ([1]; M0237-D02 concentration 115.2 nM): 0.0086 s⁻¹
lymphocyte infiltration [2]: significantly decreased
neutrophil infiltration [2]: significantly decreased
total white blood cell infiltration [2]: significantly decreased

Reference: patent publication US20110135573A1, “METALLOPROTEINASE 9 AND METALLOPROTEINASE 2 BINDING PROTEINS” (DYAX CORP., priority 2009, published 2011)
